Measurements from PMC11332595.

Assays:
[1] = target: MapSPARTA V113R (TIR-APAZ V113R with Ago) (Maribacter polysiphoniae); test: SEC
[2] = target: MapSPARTA V113R/D106R/D111R (TIR-APAZ triple mutant with Ago) (Maribacter polysiphoniae); test: SEC
[3] = target: MapSPARTA (binary complex of TIR-APAZ and Ago), wild type (Maribacter polysiphoniae); test: cryo-EM structure
[4] = target: MapSPARTA (binary complex of TIR-APAZ and Ago), wild type (Maribacter polysiphoniae); test: cryo-EM structure; remark: listed apart in the source
[5] = target: MapSPARTA (binary complex of TIR-APAZ and Ago), wild type (Maribacter polysiphoniae); test: SEC
[6] = target: MapSPARTA (binary complex of TIR-APAZ and Ago), wild type (Maribacter polysiphoniae); test: cryo-EM structure; remark: listed apart in the source
[7] = target: T1, MapSPARTA WT (Ago + TIR-APAZ) (Maribacter polysiphoniae, UniProt A0A316E3U6;A0A316E683 1-507;1-450); test: BLI
T1 sequence 1: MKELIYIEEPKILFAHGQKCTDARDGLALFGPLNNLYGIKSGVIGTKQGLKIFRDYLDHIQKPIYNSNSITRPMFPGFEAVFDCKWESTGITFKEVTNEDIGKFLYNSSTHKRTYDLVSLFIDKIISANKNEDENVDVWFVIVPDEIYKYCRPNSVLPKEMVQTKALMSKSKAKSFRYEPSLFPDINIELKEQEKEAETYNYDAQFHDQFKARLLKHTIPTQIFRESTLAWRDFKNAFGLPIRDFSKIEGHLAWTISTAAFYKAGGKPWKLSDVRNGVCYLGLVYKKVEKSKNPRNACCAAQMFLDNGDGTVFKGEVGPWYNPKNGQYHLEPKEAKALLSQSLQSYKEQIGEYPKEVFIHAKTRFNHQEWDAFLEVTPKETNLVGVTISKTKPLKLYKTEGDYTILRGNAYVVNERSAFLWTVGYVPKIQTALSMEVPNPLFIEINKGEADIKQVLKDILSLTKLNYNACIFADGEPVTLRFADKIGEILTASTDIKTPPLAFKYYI
T1 sequence 2: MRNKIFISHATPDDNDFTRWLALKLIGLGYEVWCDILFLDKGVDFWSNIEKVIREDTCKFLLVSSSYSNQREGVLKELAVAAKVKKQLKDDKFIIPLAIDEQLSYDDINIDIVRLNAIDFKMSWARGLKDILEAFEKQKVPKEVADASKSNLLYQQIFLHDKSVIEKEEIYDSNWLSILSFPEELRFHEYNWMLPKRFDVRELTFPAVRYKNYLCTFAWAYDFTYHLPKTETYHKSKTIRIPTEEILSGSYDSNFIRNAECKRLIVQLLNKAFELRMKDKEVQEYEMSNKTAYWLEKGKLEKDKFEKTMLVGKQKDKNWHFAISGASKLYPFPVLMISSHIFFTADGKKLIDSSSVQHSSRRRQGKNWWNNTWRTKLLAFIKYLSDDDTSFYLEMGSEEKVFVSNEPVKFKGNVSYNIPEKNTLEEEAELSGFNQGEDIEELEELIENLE

Molecule: MapSPARTA V113R (TIR-APAZ V113R with Ago) (complex)
- stoichiometry N [1]: 2

Molecule: MapSPARTA V113R/D106R/D111R (TIR-APAZ triple mutant with Ago) (complex)
- stoichiometry N [2]: 2

Molecule: MapSPARTA (binary complex of TIR-APAZ and Ago), wild type
- stoichiometry N [3]: 4
- stoichiometry N [4]: 4
- stoichiometry N [5]: 4
- stoichiometry N [6]: 2

B1: guide RNA + biotinylated target DNA (BLI) (DNA:RNA)
RNA: UGACGGCUCUAAUCUAUUAGU
DNA: CAACTAATAGATTAGAGCCGTCAAT
modifications: 5'-phosphate on guide RNA
- Kd [7]: 13.5 nM
